In publication PMC5447677, “Pathogenic Leptospira Secreted Proteases Target the Membrane Attack Complex: A Potential Role for Thermolysin in Complement Inhibition” (Frontiers in Microbiology, 2017):

Columns and labels:
Experiment in all cases: ELISA; thermolysin coated on microtiter plates (100 ul; 10 ug/ml, 16 h, 4 C), blocked with 3% BSA in PBS; C6, C7, C8 or C9 added (100 ul; 0-5 ug/ml) for 1 h at 37 C; detected with goat polyclonal antibodies, absorbance at 492 nm; Kd by non-linear regression Y = Bmax*X/(Kd + X); for C6 also with a fixed amount (1 ug) in 0-600 mM NaCl (reduced only at 600 mM) or 0.05-1 ug heparin (dose-dependent inhibition)
Conditions in all cases: both partners purified
[1] = target: T1, Complement component C6, purified from human plasma (human, UniProt P13671 22-934)
T1 construct: human complement component C6, single polypeptide chain (~100 kDa), purified from plasma; source: bought: Complement Technology (purified from human plasma)

[2] = target: T2, Complement component C8, purified from human plasma (human, UniProt P07357 31-584; P07358 55-591; P07360 21-202)
T2 construct: human complement component C8 alpha chain (~64 kDa), purified from plasma as intact C8; human complement component C8 beta chain (~64 kDa), purified from plasma as intact C8; human complement component C8 gamma chain (~22 kDa), purified from plasma as intact C8; Intact C8 of three polypeptide chains (alpha, beta, gamma); source: bought: Complement Technology (purified from human plasma); copies: …

[3] = target: T3, Complement component C9, purified from human plasma (human, UniProt P02748 22-559)
T3 construct: human complement component C9, single 71 kDa polypeptide chain, purified from plasma; source: bought: Complement Technology (purified from human plasma)

[4] = target: T4, Complement component C7, purified from human plasma (human, UniProt P10643 23-843)
T4 construct: human complement component C7, 95 kDa single chain, purified from plasma; source: bought: Complement Technology (purified from human plasma)
T4 sequence (P10643 23-843): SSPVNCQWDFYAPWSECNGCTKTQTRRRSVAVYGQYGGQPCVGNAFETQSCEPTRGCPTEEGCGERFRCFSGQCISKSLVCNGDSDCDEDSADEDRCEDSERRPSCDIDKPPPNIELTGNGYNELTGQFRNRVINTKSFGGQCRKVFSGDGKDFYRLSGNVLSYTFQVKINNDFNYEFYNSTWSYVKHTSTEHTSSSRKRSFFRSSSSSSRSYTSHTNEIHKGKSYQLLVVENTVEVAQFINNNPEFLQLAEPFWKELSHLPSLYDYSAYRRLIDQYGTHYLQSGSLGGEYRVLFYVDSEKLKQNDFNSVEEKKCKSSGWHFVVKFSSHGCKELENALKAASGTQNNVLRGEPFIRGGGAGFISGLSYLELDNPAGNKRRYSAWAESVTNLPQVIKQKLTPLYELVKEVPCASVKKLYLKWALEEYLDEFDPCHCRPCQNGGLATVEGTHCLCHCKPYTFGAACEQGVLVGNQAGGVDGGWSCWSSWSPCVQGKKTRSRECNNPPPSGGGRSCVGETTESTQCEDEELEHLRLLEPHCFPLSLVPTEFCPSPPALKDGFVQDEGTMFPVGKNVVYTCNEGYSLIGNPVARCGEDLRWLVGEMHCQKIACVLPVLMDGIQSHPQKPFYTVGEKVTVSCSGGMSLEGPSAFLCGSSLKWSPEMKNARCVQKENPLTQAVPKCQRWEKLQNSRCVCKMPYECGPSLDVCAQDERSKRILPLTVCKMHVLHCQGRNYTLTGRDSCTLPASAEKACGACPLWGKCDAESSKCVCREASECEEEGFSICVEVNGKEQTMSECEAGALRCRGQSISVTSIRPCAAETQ

T1 sequence (P13671 22-934): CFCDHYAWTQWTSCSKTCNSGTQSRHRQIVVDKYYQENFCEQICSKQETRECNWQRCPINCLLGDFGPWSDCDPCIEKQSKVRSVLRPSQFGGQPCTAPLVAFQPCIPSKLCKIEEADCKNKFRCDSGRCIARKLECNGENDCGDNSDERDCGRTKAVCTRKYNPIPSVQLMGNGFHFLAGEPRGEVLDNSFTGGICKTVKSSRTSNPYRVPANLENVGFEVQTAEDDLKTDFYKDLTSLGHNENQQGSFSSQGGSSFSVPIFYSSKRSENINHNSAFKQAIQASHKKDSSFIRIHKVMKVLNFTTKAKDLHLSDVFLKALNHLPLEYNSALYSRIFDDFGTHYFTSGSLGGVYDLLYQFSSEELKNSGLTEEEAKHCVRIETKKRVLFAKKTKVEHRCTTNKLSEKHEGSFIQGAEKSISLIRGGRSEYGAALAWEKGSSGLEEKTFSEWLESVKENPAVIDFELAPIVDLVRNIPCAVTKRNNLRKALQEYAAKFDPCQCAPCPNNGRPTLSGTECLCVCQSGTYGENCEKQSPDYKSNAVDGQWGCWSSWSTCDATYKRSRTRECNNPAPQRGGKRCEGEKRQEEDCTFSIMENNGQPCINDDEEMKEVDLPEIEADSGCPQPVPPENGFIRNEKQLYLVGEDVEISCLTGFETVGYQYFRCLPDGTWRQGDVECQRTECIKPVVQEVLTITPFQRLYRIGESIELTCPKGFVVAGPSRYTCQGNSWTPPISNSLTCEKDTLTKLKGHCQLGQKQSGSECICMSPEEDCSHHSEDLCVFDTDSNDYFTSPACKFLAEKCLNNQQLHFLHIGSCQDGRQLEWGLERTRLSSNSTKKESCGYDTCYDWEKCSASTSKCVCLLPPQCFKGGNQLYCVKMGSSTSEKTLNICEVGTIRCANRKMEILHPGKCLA
T2 sequence (P07357 31-584, chain 1 of 3): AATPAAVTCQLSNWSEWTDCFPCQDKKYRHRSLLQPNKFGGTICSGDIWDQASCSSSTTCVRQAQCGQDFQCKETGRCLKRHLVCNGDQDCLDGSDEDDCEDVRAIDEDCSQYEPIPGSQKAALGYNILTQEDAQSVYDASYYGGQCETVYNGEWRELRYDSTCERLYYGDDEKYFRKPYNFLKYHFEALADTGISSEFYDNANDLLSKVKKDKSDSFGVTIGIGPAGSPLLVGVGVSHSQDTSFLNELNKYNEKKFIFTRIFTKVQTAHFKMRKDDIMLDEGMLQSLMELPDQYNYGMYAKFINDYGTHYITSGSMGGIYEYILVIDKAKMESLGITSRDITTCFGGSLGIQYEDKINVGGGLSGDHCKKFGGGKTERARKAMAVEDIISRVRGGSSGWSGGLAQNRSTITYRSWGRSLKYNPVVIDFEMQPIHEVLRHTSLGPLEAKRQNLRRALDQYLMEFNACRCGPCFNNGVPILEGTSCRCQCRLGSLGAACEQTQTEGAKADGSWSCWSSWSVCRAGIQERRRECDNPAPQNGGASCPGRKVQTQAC
T2 sequence (P07358 55-591, chain 2 of 3): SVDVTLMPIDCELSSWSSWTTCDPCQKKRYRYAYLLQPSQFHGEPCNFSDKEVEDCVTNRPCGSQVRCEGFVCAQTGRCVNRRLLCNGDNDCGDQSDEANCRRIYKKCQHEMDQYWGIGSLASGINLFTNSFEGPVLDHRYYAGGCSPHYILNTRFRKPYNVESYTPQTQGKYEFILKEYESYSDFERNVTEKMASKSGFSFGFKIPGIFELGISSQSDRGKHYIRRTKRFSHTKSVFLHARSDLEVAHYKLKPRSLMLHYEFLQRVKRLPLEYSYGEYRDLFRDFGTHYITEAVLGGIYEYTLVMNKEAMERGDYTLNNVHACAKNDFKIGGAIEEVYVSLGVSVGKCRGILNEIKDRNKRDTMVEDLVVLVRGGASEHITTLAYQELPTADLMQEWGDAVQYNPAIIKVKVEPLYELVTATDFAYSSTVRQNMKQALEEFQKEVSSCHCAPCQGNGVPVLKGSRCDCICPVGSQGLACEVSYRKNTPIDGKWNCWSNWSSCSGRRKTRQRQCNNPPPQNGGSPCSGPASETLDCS
T2 sequence (P07360 21-202, chain 3 of 3): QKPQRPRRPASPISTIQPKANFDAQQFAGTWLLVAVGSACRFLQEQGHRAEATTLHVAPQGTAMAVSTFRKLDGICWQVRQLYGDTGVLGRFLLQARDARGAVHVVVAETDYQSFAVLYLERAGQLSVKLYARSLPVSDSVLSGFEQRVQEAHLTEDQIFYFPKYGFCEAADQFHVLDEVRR
T3 sequence (P02748 22-559): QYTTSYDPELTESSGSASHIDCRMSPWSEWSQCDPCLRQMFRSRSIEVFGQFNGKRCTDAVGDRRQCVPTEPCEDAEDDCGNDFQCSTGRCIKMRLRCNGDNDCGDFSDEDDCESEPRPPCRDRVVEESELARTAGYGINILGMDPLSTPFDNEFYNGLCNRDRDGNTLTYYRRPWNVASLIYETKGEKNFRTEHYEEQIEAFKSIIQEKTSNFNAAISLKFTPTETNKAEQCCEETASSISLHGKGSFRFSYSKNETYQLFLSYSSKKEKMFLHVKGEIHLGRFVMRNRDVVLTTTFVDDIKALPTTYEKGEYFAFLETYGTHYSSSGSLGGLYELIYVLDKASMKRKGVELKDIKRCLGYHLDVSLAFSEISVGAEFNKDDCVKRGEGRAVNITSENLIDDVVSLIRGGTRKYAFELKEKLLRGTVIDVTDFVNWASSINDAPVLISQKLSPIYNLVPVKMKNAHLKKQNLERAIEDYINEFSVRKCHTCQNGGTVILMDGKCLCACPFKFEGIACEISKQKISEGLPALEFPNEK

B1: recombinant thermolysin (LIC13322), PepSY-M4 fragment (domain or fragment)
chain: EFYQVPENFNSSPKLSESEALSKTLKHIGAKKYIWESVEREAALKRKKNDPNASYFPKGELLVYEHSLGKSNTKKEFRLAYKFGIASIDPPISRYVYVDSNSGEILSSKDARRYEGVQFPSPKPPIEIDIDYSRCIIDKEYCIEQGTAMTRFSGLQSITTWTAGKTNHFELKDNSRGGGIYTYSWEFVKDPLEDIQLLNIPMIDTNNSWSQSEYHDNYNHDALLDAHWGIEMTYDYFKSIHNRLSYDGDNSRIFNNVHYFNAFVANNAYWDPVTEEIYYVYCPHKNSICKGFNLPILLDPKYEDFTSLDIVSHEFGHGINGDLAGFNLDMEPGALDEGFSDIWNVGVNNYVNKVLGMQKNIWLVGDETVPGGGMRSVSNPKSTTVMSPGPNTYHGDLWDFEDNEAHTNSLVLSHWFYTLSKGKQGFNDYECTYNVSGIGIEKAERIAYVALLFLSSTSGYTSARTYAIIAAKLLYGLFSSEVKSTIDAWDAVAVPAETTSRGGQGMVRPRHYIASVKLSNVTNDSGNDCGYKDNSYLLPTVLRGVTYNMVLLSQGSASNPSKVHKWRVWIDFNQNGSFESSEMVVQDTVNSSFGGTLQKSIKIPTNALTGYAKMRVSMKAAQSGEAYQGSSESFVEGEVEDYIVSILDFSL
- Kd [1]: 31.8 ± 2.2 nM
- Kd [2]: 62 ± 7.1 nM
- Kd [3]: 56.8 ± 5.2 nM
- Kd [4]: 17.8 ± 1.3 nM
